A protein production outcome set (Wang et al. 2014)

Test: label from the status in PepcDB records
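Also: failed if final PepcDB status was selected cloned or expressed and not failed if soluble or beyond.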

Row | Sequence | protein production
1 | MKIFLDSAITTDIQDRLATEIIDGVTTNPTLIKKSNEDPDVVYKELYDMRVKDISIEVRGDTAQELAANGILYGRKYGEVATIKLPCTVEGIKACKKLSILGHKTNMTLVFSVSQAILCAKAGATYVSPFVGRLDQIGEDGIQLIRDISRVYCVSGVKTQILAASIRSPKQAEDAYLAGADICTLPVKVFDQMFKHTLTDDGLKQFAIDFGINF | failed
2 | TDPDADRLGVEIRQPDGSYKNLSGNQIGAIIAKYILEAHKTAGTLPENAALAKSIVSTELVTKIAESYGATMFNVLTGFKFIAEKIQEFEEKHNHTYMFGFEESFGYLIKPFVRDKDAIQAVLLVAEIAAYYRSRGLTLADGIDEIYKEYGYFAE | failed
3 | LSNLETAKAMIAAYNAQDVDTYVSYMTDDACEANYRGDVVREGKEGTRSGLAAAFARWPQNHAEIKDAQQVGTYVLMREHVTRGPATDGSPLVEPFDVVAVYSFEGDKCSRVEFIR | not failed
4 | MSKHTVLFELGCEELPPKSLKTLRDALQAETVKGLKDAGLAFASIEAYAAPRRLALKIVDVDGAQADTQKRFDGPAVQAAYDAEGKPTKALEGFMRGQGITADQVSTFQAGKVEKVCYLKDVKGQTLDALLPQILQTALDNLPIAKRMRSAASRTEFVRPVKWVVLLKDDQIIEATIQDHQAGNVTYGHRFHAPEAVTLAHANDYLAALEKAYVVANFEKRQATIQEQVKKLADEVNATAIVPADLLDEVTSLVEWPVALRANFEERFLAVPQEALITTMQDNQKYFCLINSEGKLQPYFITVSNIESKDPTQIIEGNEKVVRPRLSDAEFFFLQDQKQPLASRKEKLANMVFQAQLGTLWDKSTRIAKLAVALSPITGANPADAEKAALLAKCDLTSELVGEFPELQGIAGTYYARIEGENTEVSEALGEQYLPKFAGDVLPKTKTGTTIALADRLDTLVGIFGIGQAPTGSKDPFALRRSAIGILRLIIENELDVTIEELVNLALQGYGDIVKDHDKTLADAVAFLEGRYRAKYEDQGVAVDVLQAVQALAPKS | failed
5 | MTPNYLDIAFLAVLGLFTLRGLFRGLVEEVAGLVGVIGGFWLANRHHADAAAYVGRVVEDPAWVGVLSYVVVFLGVLLVVSIVARIIRKLLVLSFAGWLDHLAGGAVGVAKGVIICSILLAVLMHFLPDASFVRDSRVIPHLAKVTSFIKGYLPQQIVN | failed
6 | MLSTSRSRFIRNTNESGEEVTTFFDYDYGAPCHKFDVKQIGAQLLPPLYSLVFIFGFVGNMLVVLILINCKKLKCLTDIYLLNLAISDLLFLITLPLWAHSAANEWVFGNAMCKLFTGLYHIGYFGGIFFIILLTIDRYLAIVHAVFALKARTVTFGVVTSVITWLVAVFASVPGIIFTKCQKEDSVYVCGPYFPRGWNNFHTIMRNILGLVLPLLIMVICYSGILKTLLRCRNEKKRHRAVRVIFTIMIVYFLFWTPYNIVILLNTFQEFFGLSNCESTSQLDQATQVTETLGMTHCCINPIIYAFVGEKFRRYLSVFFRKHITKRFCKQCPVFYRETVDGVTSTNTPSTGEQEVSAGL | failed
7 | MHLKNNQTLANGATVTIYPTTTEPTNYVVYLHGGGMIYGTKSDLPEELKELFTSNGYTVLALDYLLAPNTKIDHILRTLTETFQLLNEEIIQNQSFGLCGRSAGGYLMLQLTKQLQTLNLTPQFLVNFYGYTDLEFIKEPRKLLKQAISAKEIAAIDQTKPVWDDPFLSRYLLYHYSIQQALLPHFYGLPENGDWSAYALSDETLKTFPPCFSTASSSDEEVPFRYSKKIGRTIPESTFKAVYYLEHDFLKQTKDPSVITLFEQLDSWLKER | not failed
8 | MPWLQVRLAITPEQAETYEDALLEVGAVSVTFMDAEDQPIFEPDLGTTPLWSRTHLLALFEADTDETALLAHLALLTGGDLPEHHVEEIADQDWERSWMDNFQPMRFGRRLWIVPSWHAAPEPDAVNLLLDPGLAFGTGTHPTTALCLEWLDGQELAGRQVLDFGCGSGILAIAALLLGAERAVGTDIDPQALEASRDNASRNGIEPARFPVYLPADLPQRQADVLVANILAGPLVSLAPQLTGLVRPGGLLALSGILAEQAEEVRAAYSAHFDLDPTAEREGWIRISGRRRAD | failed
9 | MEKNRRGIQSVELGSRVLQALAQFGRPAGLTELAQECDMPPGKVHPYLVSFMKVGFVARDPASGLYELGHLALELGLAKLHRLDPVREASQAIADLAAETGHGTGLVVWGNLGPTLIRLEEPAHPLHVNLRIGTVMSLVHTATGRLFAAYLPAKVVSRVLEADPMGVHFGSRHQSRPAQEDYERQLSEIRSRGISRTLGSPIPGIDAFCAPVFDSMGHIAAGLLVMGPSATFDSDWDGQIATRLHACANDISRKLGYIDTPASPRAAR | failed
10 | MSLKIKHEHIRMAMNAWAHPDGEKVPAAEITRAYFELGMTFPELYDDSHPEALARNTQKIFRWVEKDTPDAVEKIQALLPAIEKSMPPLLVARMRSHSSAYFRELVETRERLVRDADDFVAVAIAGFNQMNRGGPAGNIVAVHEGHHHHHH | not failed
11 | MMKLMFASDIHGSLPATERVLELFAQSGAQWLVILGDVLNHGPRNALPEGYAPAKVAERLNEVAHKVIAVRGNCDSEVDQMLLHFPITAPWQQVLLEKQRLFLTHGHLFGPENLPALNQNDVLVYGHTHLPVAEQRGEIFHFNPGSVSIPKGGNPASYGMLDNDVLSVIALNDQSIIAQVAINP | not failed
12 | MMSRKRWLALIAAAMLFVASAAISLVSSPAVDVDEWVGTGTSYKQTIVETGTDFGKSIAILELSGVIQDTGSAPSLLNTGVYHHRDFLKQLEKAGEDPNIAGIILQVNTPGGGVLESAEIHKQVEEIVQDSEKPVYVSMGNMAASGGYYISAPATKIYAHPQTITGSIGVIMQSIDISGLAENLGIEFNTFKSGPYKDILSQTREVTDEEEDILQTLVDEMYDEFVRVIVDGRGMSETEVRELADGRIYTGSQAVATGLVDELGGLDDVIESMKEDLGADYNVIRYEHSLGLYDFFSMSTNRLLSPSYELQSIERLLNQSNTPTLQYLYAELEHHHHHH | not failed
13 | MPVHSRGDKKETNHHDEMEVDYAENEGSSSEDEDTESSSVSEDGDSSEMDDEDCERRRMECLDEMSNLEKQFTDLKDQLYKERLSQVDAKLQEVIAGKAPEYLEPLATLQENMQIRTKVAGIYRELCLESVKNKYECEIQASRQHCESEKLLLYDTVQSELEEKIRRLEEDRHSIDITSELWNDELQSRKKRKDPFSPDKKKPVVVSGPYIVYMLQDLDILEDWTTIRKAMATLGPHRVKTEPPVKLEKHLHSARSEEGRLYYDGEWYIRGQTICIDKKDECPTSAVITTINHDEVWFKRPDGSKSKLYISQLQKGKYSIKHS | not failed
14 | MILTYHNMYYYQNESRDIAAALLIMTLAFFILLNGLGFYGLLSLIYLAIAFLVVVTAFLFHELAHRAVARRLGAVAFFKLWPIGAFLALITSLFHFLFAAPGAVEFAGVYDNESQGKIALAGPATNIIIGIITYILSIFSLGIVHYVLYYVGALNLWFALFNMIPIPPLDGSKVFYWKGSIFAGVFVFTIIMNIVDGFLLHII | failed
15 | MAIVLLVLHVCTGLRGSPVSGRVRMAVDSGIYLAPCSNNDAQEHLKRTVINGVDRDDYGQYTNVGFGDSVSIWGVKGGNESHWQDIDAGDYLFFYTGDETYSQVAEVLATDQNEGLAEHLWPGFEDTWEFIIYLNEPIPVNIDSNEIADYAGYKQNYILGFQSLRGSAVDEINDEYGSIEGYINANRTDGNHIQTSGGSQDPDEGDDSVVDEVLDEADRDEEAYANIARQLEEVGQVVFYGPPGTGKTYNAQQFARWWLHNLQSEPRESQVRSVTFHPSYTYEDFIEGLTANATENSVSYDIKPGKFKAICEDARVAYQETGPNEEPPRYVLLIDEINRGNLAQIFGETITLLEEDKRGTLHVDLAHSGGSFTIPPNLYVIGTMNTADRSVALVDAALRRRFRFIDFPPDYGVARSRFGFDTEYDLTSAARGERSDLEQLQALSIQAVEQLNETIIELPDLGKGKQIGHSYLLVDPDDEQALVDAWRYEILPLLEEYFYGQLSRIRQELFNQNGDSLVDWEREQIKDFDPETLRESLQAIVNAGLEHHHHHH | failed
16 | MNLANIVQRGWEALGAGDFDTLVTDYVEKMIFIMPGQADVLKGRQAFRSALDNLGEILPPGFEITGLRQLEGENEIVSIVEWKSDKMIASQLSVLFKFEGDQIYEERWFVDTEQWKSVF | not failed
